Measured values: patent publication CN114317447A

What was measured:
[1] = target: 磷酸二(2-乙基己基)酯蛋白偶联物 (di(2-ethylhexyl) phosphate coupled to bovine serum albumin) (bovine (牛)) (UniProt P02769); test: indirect ELISA, D-BSA coated on plate, antibody titrated, OD450
[2] = target: 磷酸二(2-乙基己基)酯蛋白偶联物 (di(2-ethylhexyl) phosphate coupled to bovine serum albumin) (bovine (牛)) (UniProt P02769); test: indirect ELISA, D-BSA coated on plate, antibody titrated, OD450; unit from the x axis of Figure 1

Sequence of UniProt P02769 (P02769 25-607 limits assumed, form in doubt): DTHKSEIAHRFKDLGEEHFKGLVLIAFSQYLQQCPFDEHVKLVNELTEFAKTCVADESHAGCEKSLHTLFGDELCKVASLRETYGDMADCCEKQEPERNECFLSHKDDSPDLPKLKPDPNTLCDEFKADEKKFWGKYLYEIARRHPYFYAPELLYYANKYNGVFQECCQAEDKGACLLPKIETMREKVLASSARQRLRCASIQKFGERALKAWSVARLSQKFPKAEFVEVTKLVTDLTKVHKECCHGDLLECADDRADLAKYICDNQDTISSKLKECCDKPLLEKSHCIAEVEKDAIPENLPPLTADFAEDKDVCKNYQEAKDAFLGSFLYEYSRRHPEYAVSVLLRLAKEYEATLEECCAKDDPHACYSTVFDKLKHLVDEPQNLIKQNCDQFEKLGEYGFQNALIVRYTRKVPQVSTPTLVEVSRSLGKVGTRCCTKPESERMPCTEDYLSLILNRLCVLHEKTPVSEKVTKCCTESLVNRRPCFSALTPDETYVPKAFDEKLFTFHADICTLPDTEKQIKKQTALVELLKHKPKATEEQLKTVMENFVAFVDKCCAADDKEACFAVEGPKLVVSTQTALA

B1: 磷酸二(2-乙基己基)酯单克隆抗体 (monoclonal antibody against di(2-ethylhexyl) phosphate, secreted by hybridoma cell line 2D5, CCTCC NO: C2021136) (antibody, V domains shown)
VH: QVQLQQSGAELVRPGSSVKISCKASGYAFSSYWMNWVKQRPGQGLEWIGQIYPGDGDTNYNGKFKGKATLTADKSSSTAYMQLSSLTSEDSAVYFCARSDYPWFVYWGQGTLVTVSA
VL: QIVLTQSPAIMSASPGEKVTISCSASSSVSYMYWYQQKPGSSPKPWIYRTSNLASGVPARFSGSGSGTSYSLTISSMEAEDAATYYCQQYHSYPWTFGGGTKLEIK
A of the ELISA titer curve (lower asymptote, OD450) [1]: 0.203 OD450 | D of the ELISA titer curve (upper asymptote, OD450) [1]: 2.19 OD450 | C of the ELISA titer curve y=(A-D)/(1+(x/C)^B)+D (midpoint antibody concentration) [2]: 62.4 ng/mL
